Test results as given in patent publication US20160312207A1 (Stanford University, published 2016).

Legend:
[1] = molecular target: T1, human RSPO1 (human, UniProt Q2MKA7 21-263, limits assumed); assay: Biacore (SPR)
T1 construct: Recombinant protein; also called R-spondin 1; recombinant R-spondin

[2] = molecular target: T2, human RSPO2 (human, UniProt Q6UXX9 22-243, limits assumed); assay: Biacore (SPR)
T2 construct: Recombinant protein; also called R-spondin 2; recombinant human RSPO2

[3] = molecular target: T3, human RSPO3 (human, UniProt Q9BXY4 22-272, limits assumed); assay: Biacore (SPR)
T3 construct: Recombinant protein; also called R-spondin 3
T3 sequence (looked up): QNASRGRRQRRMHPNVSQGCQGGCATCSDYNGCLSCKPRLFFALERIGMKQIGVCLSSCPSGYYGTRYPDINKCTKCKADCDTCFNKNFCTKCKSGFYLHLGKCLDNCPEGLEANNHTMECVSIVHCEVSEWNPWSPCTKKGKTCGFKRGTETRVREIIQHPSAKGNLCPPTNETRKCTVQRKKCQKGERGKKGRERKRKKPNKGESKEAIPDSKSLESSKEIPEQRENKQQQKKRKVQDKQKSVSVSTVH

[4] = molecular target: T4, human RSPO4 (human, UniProt Q2I0M5 20-234, limits assumed); assay: Biacore (SPR)
T4 construct: Recombinant protein; also called R-spondin 4
T4 sequence (Q2I0M5 20-234 limits assumed): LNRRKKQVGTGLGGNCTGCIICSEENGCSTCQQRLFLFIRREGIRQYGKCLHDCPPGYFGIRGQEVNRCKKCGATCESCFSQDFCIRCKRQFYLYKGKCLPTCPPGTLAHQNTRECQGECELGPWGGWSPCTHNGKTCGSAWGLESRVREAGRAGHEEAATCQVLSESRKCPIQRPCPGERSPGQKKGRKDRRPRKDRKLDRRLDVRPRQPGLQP

[5] = molecular target: T1, human RSPO1; assay: Biacore (SPR); human RSPO1
[6] = molecular target: T2, human RSPO2; assay: Biacore (SPR); human RSPO2
[7] = molecular target: T3, human RSPO3; assay: Biacore (SPR); human RSPO3
[8] = molecular target: T4, human RSPO4; assay: Biacore (SPR); human RSPO4
[9] = molecular target: T2, human RSPO2; assay: Biacore (SPR), against ZNRF3-Fc ECD fusion tested in parallel
[10] = molecular target: T3, human RSPO3; assay: as above

T2 sequence (Q6UXX9 22-243 limits assumed): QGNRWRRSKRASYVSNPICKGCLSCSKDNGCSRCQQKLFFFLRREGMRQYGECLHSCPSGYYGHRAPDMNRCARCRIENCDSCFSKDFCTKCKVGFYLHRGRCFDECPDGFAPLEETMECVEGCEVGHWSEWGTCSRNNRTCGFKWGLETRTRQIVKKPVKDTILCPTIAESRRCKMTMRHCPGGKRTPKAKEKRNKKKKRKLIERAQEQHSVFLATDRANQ
T1 sequence (Q2MKA7 21-263 limits assumed): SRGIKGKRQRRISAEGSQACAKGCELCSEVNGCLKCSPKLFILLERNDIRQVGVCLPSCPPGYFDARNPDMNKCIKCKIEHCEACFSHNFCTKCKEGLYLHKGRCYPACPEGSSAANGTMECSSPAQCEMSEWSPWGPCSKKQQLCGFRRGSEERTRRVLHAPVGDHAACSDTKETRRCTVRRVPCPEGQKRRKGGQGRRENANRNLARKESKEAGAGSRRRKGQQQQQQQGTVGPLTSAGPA

ZNRF3-Fc ECD fusion (Fc fusion)
Kd [1]: 381 nM
Kd [2]: 12.8 nM
Kd [3]: 6.58 nM
Kd [4]: > 1000 nM

B1: soluble RNF43-Fc ECD fusion protein (Fc fusion)
chain: GFGHTGRVLAAAVESERSAEQKAVIRVIPLKMDPTGKLNLTLEGVFAGVAEVTPAEGKLMQSHPLYLCNASDDDNLEPGFISIVKLESPRRAPRPCLSLASKARMAGERGANAVLFDITEDRSAAEQLQQPLGLTKPVVLIWGSDAAKLMEFVYKNRKAYVWIELKEPPRRLEPRGPTIKPCPPCKCPAPNLLGGPSVFIFPPKIKDVLMISLSPIVTCVVVDVSEDDPDVQISWFVNNVEVHTAQTQTHREDYNSTLRVVSALPIQHQDWMSGKEFKCKVNNKDLPAPIERTISKPKGSVRAPQVYVLPPPEEEMTKKQVTLTCMVTDFMPEDIYVEWTNNGKTELNYKNTEPVLDSDGSYFMYSKLRVEKKNWVERNSYSCSVVHEGLHNHHTTKSFSRTPGK
notes: No linker between ECD and Fc is stated; also called RNF43 ECD-Fc fusion protein; RNF43 ECD
Kd [5]: 53 nM
Kd [6]: 0.00182 nM
Kd [7]: 0.00145 nM
Kd [8]: 142 nM
fold stronger affinity than the ZNRF3-Fc ECD fusion [9]: ~7000 fold
fold stronger affinity than the ZNRF3-Fc ECD fusion [10]: ~4500 fold
